Reference: patent US20140128319A1

Key:
[1] = target: Type 1 IGF receptor (IGF-1R) (human) (UniProt P08069); assay: competitive displacement of 125I-labeled IGF-I; IGF-1R (FIG. 9B)
[2] = target: Type 1 IGF receptor (IGF-1R) (human) (UniProt P08069); assay: competitive displacement of 125I-Tyr31-human IGF-I; human IGF-1R, Experiment 2
[3] = target: Type 1 IGF receptor (IGF-1R) (human) (UniProt P08069); assay: competitive displacement of 125I-Tyr31-human IGF-I; human IGF-1R, Experiment 1

Sequence of Type 1 IGF receptor (IGF-1R) (human) (P08069 31-1367 limits assumed): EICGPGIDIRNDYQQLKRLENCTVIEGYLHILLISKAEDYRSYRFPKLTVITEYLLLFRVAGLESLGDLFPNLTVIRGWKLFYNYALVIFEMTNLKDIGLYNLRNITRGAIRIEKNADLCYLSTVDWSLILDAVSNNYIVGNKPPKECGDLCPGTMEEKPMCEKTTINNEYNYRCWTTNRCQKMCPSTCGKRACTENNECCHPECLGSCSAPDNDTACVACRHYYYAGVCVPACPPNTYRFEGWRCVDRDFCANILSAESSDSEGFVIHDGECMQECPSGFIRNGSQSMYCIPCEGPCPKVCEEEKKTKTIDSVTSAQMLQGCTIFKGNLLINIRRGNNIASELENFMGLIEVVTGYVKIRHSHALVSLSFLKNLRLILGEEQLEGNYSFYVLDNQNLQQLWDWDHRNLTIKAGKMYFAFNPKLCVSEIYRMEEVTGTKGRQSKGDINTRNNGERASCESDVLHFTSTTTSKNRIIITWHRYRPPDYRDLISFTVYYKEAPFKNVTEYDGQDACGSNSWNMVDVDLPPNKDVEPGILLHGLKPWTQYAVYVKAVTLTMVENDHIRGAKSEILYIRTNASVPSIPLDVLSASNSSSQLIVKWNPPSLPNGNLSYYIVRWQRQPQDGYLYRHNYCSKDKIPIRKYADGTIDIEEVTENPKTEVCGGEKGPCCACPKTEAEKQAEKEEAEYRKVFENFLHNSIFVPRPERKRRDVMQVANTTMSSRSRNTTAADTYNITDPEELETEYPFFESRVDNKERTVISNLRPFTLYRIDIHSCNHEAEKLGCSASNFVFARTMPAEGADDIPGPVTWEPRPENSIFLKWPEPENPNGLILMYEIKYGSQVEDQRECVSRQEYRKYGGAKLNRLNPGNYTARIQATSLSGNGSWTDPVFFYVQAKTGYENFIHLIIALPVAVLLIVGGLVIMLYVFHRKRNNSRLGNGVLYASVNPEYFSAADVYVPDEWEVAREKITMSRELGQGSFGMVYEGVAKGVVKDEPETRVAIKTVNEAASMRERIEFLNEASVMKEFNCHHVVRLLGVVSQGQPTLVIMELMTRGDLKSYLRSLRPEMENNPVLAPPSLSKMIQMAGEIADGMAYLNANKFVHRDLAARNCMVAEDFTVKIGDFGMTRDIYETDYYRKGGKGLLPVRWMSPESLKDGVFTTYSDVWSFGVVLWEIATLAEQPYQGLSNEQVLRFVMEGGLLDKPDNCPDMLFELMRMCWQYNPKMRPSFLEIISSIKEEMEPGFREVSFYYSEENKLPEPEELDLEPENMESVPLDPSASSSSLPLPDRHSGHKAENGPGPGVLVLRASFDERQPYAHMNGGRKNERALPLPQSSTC

Row | fold reduction of cross-binding relative to KP-insulin or wild-type insulin [1] [fold] | Kd [2] [nM] | Kd [3] [nM] | Substance
1 | 3 |  |  | 4Cl-Phe^B24-KP-insulin (ligand; para-monochloro-phenylalanine (4Cl-Phe) at B24; other documents disagree on this pair)
2 |  | 15.3 | 12.6 | KP-insulin (ligand; other documents disagree on this pair)
3 |  |  | 522 | penta-fluoro-Phe^B24-KP-insulin (ligand; penta-fluoro-phenylalanine (F5-Phe) at B24; other documents disagree on this pair)
